Results from doi:10.1101/2024.05.12.593783.

What was measured:
[1] = biological target: FITC-CLMBWT peptide (residues 21-50), not phosphorylated (UniProt Q96GX8); assay: fluorescence polarisation
[2] = biological target: FITC-pCLMBWT peptide (residues 21-50, pThr44) (UniProt Q96GX8); assay: fluorescence polarisation

- Kd [1]: 0.291 µM
- Kd [2]: 0.0141 µM
Substance: purified, catalytically inactive CNA/B containing CNA_(Trunc+H151Q) (from UniProt Q08209 1-391; P63098 1-170) (complex)
